T1: recombinant human CCR1 (Homo sapiens, UniProt P32246)
T1 construct: host or cells: CHO-K1 cells (membrane extracts)
T1 sequence (P32246 1-355): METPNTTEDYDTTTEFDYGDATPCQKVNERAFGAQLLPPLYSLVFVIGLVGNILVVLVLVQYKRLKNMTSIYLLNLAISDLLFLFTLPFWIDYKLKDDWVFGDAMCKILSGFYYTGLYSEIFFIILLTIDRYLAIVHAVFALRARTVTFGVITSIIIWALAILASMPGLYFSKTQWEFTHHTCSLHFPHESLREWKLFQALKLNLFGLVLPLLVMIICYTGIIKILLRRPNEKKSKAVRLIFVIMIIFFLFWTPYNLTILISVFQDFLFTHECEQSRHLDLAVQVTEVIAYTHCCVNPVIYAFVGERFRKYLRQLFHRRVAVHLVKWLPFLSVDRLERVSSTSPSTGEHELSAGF

T2: recombinant human CCR3 (Homo sapiens, UniProt P51677)
T2 construct: host or cells: CHO-K1 cells (membrane extracts)
T2 sequence (P51677 1-355): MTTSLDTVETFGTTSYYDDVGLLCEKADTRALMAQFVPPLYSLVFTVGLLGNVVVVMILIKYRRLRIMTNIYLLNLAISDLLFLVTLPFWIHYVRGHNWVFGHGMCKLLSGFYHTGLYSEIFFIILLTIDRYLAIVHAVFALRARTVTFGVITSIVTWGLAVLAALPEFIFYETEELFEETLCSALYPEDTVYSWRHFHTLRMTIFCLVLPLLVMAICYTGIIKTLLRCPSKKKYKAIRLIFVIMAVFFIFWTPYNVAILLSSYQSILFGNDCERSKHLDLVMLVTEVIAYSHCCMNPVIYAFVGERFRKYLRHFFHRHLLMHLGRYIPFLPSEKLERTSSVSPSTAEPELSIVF


Legend:
human CCR5 [1] = target: T3, human CCR5 (Homo sapiens, UniProt P51681); assay: cell-based or functional assay
human CCR5 [2] = target: T3, human CCR5; assay: CCR5 signaling inhibition, aequorin calcium sensor in CHO cells, agonist human MIP-1β/CCL4; conditions: read-out: IC50, inhibition of CCR5 signaling (FIG. 1C), CHO cells expressing human CCR5, agonist MIP-1β/CCL4, n=2
Text: The signaling activity measured in the cells at each inhibitor concentration is expressed as a percentage of the signal elicited by the agonist in the absence of inhibitor (n=2) (FIGS. 1A, 1B and 1C).

HIV-1BaL = assay: HIV-1 replication assay in peripheral blood mononuclear cells; type: cell-based; conditions: PBMC from a panel of US donors, FIG. 2
Experimental: For each donor, each compound was evaluated at 9 concentrations in triplicate. Each point represents log IC50 for an individual donor.

recombinant human CCR1 = target: T1, recombinant human CCR1; assay: GTPγ35S functional assay, inhibition testing, CCR1; type: biochemical; conditions: FIG. 3A
Experimental: (§1) Assay buffer was 20 mM HEPES pH 7.4; 200mM NaCl, 10 μg/ml saponin, MgCl2 at optimized concentration for the specific receptor, 0.1% BSA. CHO-K1 cells expressing recombinant human receptor membrane extracts were thawed on ice, diluted in assay buffer and kept on ice. GDP was diluted in assay buffer to give optimized concentration for the specific receptor. Beads were PVT-WGA (PerkinElmer, RPNQ001), diluted in assay buffer at a concentration optimized for the specific receptor. GTPγ^35S (PerkinElmer NEG030X) was diluted in assay buffer to give 0.1 nM.
(§2) For inhibition testing, membranes were mixed with GDP and incubated for at least 15 min on ice. In parallel, GTPγ^35S was mixed with the beads just before starting the reaction. The following reagents were successively added in the wells of an Optiplate (PerkinElmer): 50 μL of test or reference ligand, 20 μL of the membranes:GDP mix, 10 μL of reference agonist at historical EC80 and 20 μL of the GTPγ^35S:beads mix.
(§3) The plates were covered with a top seal, mixed on an orbital shaker for 2 min, and then incubated for 1 hour at room temperature. Then the plates were centrifuged for 10 min at 2000 rpm, incubated at room temperature for 1 hour and counted for 1 min/well with a PerkinElmer TopCount reader. […]
(§4) Dose-response data were analyzed with XLfit (IDBS) software using nonlinear regression applied to a sigmoidal dose-response model.

recombinant human CCR3 = target: T2, recombinant human CCR3; assay: GTPγ35S functional assay, inhibition testing, CCR3; type: biochemical; conditions: CHO-K1 membrane extracts; reference agonist at EC80; FIG. 3B
Experimental: as §1, §2, §3, §4

[3] = system: CT-26 colorectal cancer cell line; assay: CT-26 colorectal cancer animal model; type: in vivo, BALB/c mice; conditions: for tumor growth / mean tumor volume: intraperitoneal
Text: In one experiment, BALB/c mice were inoculated subcutaneously with the CT-26 colorectal cancer cell line. […] Treatment was given daily or every third day.
In another experiment, BALB/c mice were inoculated subcutaneously with the CT-26 colorectal cancer cell line. […] 5P12-RANTES treatment was given five times a week.

[4] = Preclinical single dose intravenous infusion, cynomolgus macaques; type: in vivo; conditions: 20 mg/kg
Text: (§5) These findings indicate that this N-terminally modified RANTES variant and its structurally related analogs have enhanced efficacy compared to MVC which is known to be therapeutically effective against several types of cancer, with very little side effects.

[5] = Preclinical single dose intravenous infusion, rats; type: in vivo; conditions: 20 mg/kg
Text: as §5

T3 sequence (P51681 whole entry): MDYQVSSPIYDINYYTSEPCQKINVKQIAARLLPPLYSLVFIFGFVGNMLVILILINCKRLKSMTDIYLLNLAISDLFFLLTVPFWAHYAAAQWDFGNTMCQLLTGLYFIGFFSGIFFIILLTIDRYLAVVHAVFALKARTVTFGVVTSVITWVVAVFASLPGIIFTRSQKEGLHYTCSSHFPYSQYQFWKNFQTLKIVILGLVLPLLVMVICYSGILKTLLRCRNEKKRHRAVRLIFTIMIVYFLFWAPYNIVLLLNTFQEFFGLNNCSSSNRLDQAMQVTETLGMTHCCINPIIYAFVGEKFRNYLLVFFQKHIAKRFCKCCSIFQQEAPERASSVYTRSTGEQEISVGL

Molecule | IC50 of inhibition of CCL4-induced CCR5 signaling (aequorin calcium sensor, CHO cells), FIG. 1C (human CCR5 [1]) [nM] | IC50 (human CCR5 [2]) [nM] | times more potent than MVC in inhibiting HIV-1 replication (HIV-1BaL) | antagonism of CCR1 (recombinant human CCR1; CHO-K1 membrane extracts, reference agonist at EC80) | potentiation of CCR1 signaling (recombinant human CCR1; at the highest concentrations) | antagonism towards CCR3 (recombinant human CCR3) | adverse events during treatment ([3]; anti-CTLA-4 experiment, start ten days after inoculation) | adverse events during treatment ([3]; anti-PD-1 experiment, start three days after inoculation) | tumor growth / mean tumor volume ([3]; start ten days after inoculation, five times a week, anti-CTLA-4 experiment, FIG. 4B) | tumor growth / mean tumor volume ([3]; start three days after inoculation, daily or every third day, anti-PD-1 experiment, FIG. 4A) | adverse events [4] | adverse events [5]
PRO-140 (antibody, INN chains, looked up, V domains shown) VH: EVQLVESGGGLVKPGGSLRLSCAASGYTFSNYWIGWVRQAPGKGLEWIGDIYPGGNYIRNNEKFKDKTTLSADTSKNTAYLQMNSLKTEDTAVYYCGSSFGSNYVFAWFTYWGQGTLVTVSS VL: DIVMTQSPLSLPVTPGEPASISCRSSQRLLSSYGHTYLHWYLQKPGQSPQLLIYEVSNRFSGVPDRFSGSGSGTDFTLKISRVEAEDVGVYYCSQSTHVPLTFGQGTKVEIK | 5.6 | 5.6 |  |  |  |  |  |  |  |  |  | 
5P12-RANTES: N-terminally modified RANTES variant (SEQ ID NO: 70), CCR5 inhibitor (protein, ends and bridges not checked) QGPPLMATQSCCFAYIARPLPRAHIKEYFYTSGKCSNPAVVFVTRKNRQVCANPEKKWVREYINSLEMS |  |  | 10-30 times | no antagonism | moderate level of potentiation | no antagonism | No adverse events | No significant adverse events | delayed tumor growth at multiple time-points | statistically significant delayed tumor growth at multiple time-points | without any adverse events | without any adverse events

From US20210205411A1, “CCR5 INHIBITOR FOR USE IN TREATING CANCER” (ORION BIOTECHNOLOGY SWITZERLAND SÀRL, priority 2018, published 2021)
